Measured values published in article doi:10.1101/2023.05.08.539884 (bioRxiv, 2023).
Several values for one entry are separate records, joined by “and”; a condition that tells them apart may be missing. Equal values may be shown once.

Target: UBE2A (UniProt P49459 1-152)
Assay: ITC

Kd: 2.8 µM and 2.58 µM
B1: UBR4_(4730-5183) (domain or fragment)
chain: AIQHPGTQVLIGTDSIPNLHKLEQVSSDEGIGTLAENLLEALREHPDVNKKIDAARRETRAEKKRMAMAMRQKALGTLGMTTNEKGQVVTKTALLKQMEELIEEPGLTCCICREGYKFQPTKVLGIYTFTKRVALEEMENKPRKQQGYSTVSHFNIVHYDCHLAAVRLARGREEWESAALQNANTKCNGLLPVWGPHVPESAFATCLARHNTYLQECTGQREPTYQLNIHDIKLLFLRFAMEQSFSADTGGGGRESNIHLIPYIIHTVLYVLNTTRATSREEKNLQGFLEQPKEKWVESAFEVDGPYYFTVLALHILPPEQWRATRVEILRRLLVTSQARAVAPGGATRLTDKAVKDYSAYRSSLLFWALVDLIYNMFKKVPTSNTEGGWSCSLAEYIRHNDMPIYEAADKALKTFQEEFMPVETFSEFLDVAGLLSEITDPESFLKDLLNSVP
